Reference: patent US20110064751A1

Tests used:
[1] = target: Extra Domain B of fibronectin (EDB) (UniProt P02751); test: BIACORE SPR, EDB immobilized on the chip, analyte at 1.56, 3.125 and 6.25 nM
[2] = target: Extra Domain B of fibronectin (EDB) (UniProt P02751); test: SPR (BIACORE), EDB immobilized on the chip, construct as analyte

Chain of L19 diabody-IL2 fusion protein, 12 amino acid linker (VH): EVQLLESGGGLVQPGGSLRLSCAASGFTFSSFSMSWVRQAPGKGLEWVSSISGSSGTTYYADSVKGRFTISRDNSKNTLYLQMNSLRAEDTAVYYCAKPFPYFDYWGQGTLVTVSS
Chain of L19 diabody-IL2 fusion protein, 12 amino acid linker (chain): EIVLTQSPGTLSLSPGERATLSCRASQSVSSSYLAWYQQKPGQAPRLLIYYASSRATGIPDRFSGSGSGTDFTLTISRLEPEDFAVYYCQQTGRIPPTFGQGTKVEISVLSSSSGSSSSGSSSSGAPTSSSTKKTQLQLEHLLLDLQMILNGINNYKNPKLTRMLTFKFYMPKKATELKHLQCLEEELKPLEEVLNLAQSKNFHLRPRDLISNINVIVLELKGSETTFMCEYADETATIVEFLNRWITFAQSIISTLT
Chain of Extra Domain B of fibronectin (EDB) (P02751 1266-1356 limits assumed): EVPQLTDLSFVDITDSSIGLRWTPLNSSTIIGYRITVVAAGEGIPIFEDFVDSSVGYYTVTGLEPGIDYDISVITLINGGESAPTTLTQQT

Kd [1]: 0.362 nM | koff [1]: 0.000769 s⁻¹ | kon [1]: 2.13e+06 M⁻¹ s⁻¹ | Kd [2]: 0.36 nM
Substance: L19 diabody-IL2 fusion protein, 12 amino acid linker
